The labels stand for the following.
B1: SMC5-SMC6 complex localization factor protein 1 (Homo sapiens), Q9BQI6 (parent)
chain: MEDGTPKHIIQMTGFKMEEKEALVKLLLKLDCTFIKSEKYKNCTHLIAERLCKSEKFLAACAAGKWILTKDYIIHSAKSGRWLDETTYEWGYKIEKDSRYSPQMQSAPKRWREELKRTGAPGAFHRWKVVLLVRTDKRSDSLIRVLEAGKANVILPKSSPSGITHVIASNARIKAEKEKDNFKAPFYPIQYLGDFLLEKEIQNDEDSQTNSVWTEHSNEETNKDFRKDAGFLEMKGALRETMYRTQKEMQNHEDVNVGSILIQHHKKEKFSGSSKDLKFVKMRNTFGSHTYENQKEIKKKDEDIQRSYTLRRKRKKGKESNCKKGVEHEKIKSTLRRHIYNRDQKEMKNSIFAEYAKESKAMAIKTDVDVVEIKNTLRKHIYRAQAVRYNCIRIDKQPVYNVEVKNAEFPRGVLNLIESLIEGHFFKEAIEELSTLQAHYIPPVCVLHALLENVLQDNIDTFSGRYFHILSALLHLHPPWKSPAMSRYYLELFQCPTCMKGAWSLVEVLIRSCLFNESFCHQISENIGSKVLHLTLLKFFFNLIESEVQHLSQKLYDWSDSQNLKITGKAMLLEIFWSGSETSGLLTKPVNMLLEWTIYSHKEKFKSNDVFKHELAYLLAGILGAAIDYWIFLGLKMGRNVMRHMSDDLGSYVSLSCDDFSSQELEIFICSFSSSWLQMFVAEAVFKKLCLQSSGSVSSEPLSLQKMVYSYLPALGKTGVLGSGKIQVSKKIGQRPCFDSQRTLLMLNGTKQKQVEGLPELLDLNLAKCSSSLKKLKKKSEGELSCSKENCPSVVKKMNFHKTNLKGETALHRACINNQVEKLILLLSLPGIDINVKDNAGWTPLHEACNYGNTVCVQEILQRCPEVDLLTQVDGVTPLHDALSNGHVEIGKLLLQHGGPVLLQQRNAKGELPLDYVVSPQIKEELFAITKIEDTVENFHAQAEKHFHYQQLEFGSFLLSRMLLNFCSIFDLSSEFILASKGLTHLNELLMACKSHKETTSVHTDWLLDLYAGNIKTLQKLPHILKELPENLKVCPGVHTEALMITLEMMCRSVMEFS
partner: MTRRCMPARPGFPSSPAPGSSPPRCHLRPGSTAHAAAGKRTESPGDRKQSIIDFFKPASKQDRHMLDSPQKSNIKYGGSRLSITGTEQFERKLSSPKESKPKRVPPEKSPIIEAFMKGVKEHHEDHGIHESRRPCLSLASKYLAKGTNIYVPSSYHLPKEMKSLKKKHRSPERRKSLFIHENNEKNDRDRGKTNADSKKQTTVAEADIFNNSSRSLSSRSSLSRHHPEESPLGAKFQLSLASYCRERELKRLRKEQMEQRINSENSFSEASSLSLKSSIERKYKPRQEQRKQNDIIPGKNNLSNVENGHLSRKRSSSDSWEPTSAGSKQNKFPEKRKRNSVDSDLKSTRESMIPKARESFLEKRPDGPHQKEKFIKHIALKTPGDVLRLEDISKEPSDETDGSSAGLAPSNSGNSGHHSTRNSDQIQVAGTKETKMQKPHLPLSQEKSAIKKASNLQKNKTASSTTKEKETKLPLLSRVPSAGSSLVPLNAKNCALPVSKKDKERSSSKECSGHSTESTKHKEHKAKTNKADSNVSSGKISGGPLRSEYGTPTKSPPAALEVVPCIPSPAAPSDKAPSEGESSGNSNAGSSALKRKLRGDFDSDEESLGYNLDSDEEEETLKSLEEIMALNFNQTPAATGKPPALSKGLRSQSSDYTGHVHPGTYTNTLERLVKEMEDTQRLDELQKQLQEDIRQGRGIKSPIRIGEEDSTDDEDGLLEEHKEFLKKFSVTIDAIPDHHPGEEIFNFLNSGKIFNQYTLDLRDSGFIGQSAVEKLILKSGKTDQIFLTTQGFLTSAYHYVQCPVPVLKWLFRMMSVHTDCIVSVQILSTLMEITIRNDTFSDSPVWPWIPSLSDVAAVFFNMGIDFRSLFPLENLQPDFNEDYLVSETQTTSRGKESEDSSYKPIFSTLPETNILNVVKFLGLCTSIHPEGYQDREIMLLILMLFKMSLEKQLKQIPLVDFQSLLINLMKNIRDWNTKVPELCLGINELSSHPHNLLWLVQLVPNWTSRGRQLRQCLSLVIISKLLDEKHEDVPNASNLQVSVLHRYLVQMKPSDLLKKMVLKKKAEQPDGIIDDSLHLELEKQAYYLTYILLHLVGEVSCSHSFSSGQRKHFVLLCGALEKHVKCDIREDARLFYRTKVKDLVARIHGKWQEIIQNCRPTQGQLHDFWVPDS
B2: SMC5-SMC6 complex localization factor protein 2 (Homo sapiens), Q8IX21 (parent)
chain: B1 partner
partner: B1 chain

One test covers variants of B1. The following applies: with slf2_human SLF2, Q8IX21.
As to G464D;H468E;A472D;L476E, the “effect of a mutation on the interaction” value is “disrupting interaction strength”.
In the case of A1042D;I1045E;M1049E, the “effect of a mutation on the interaction” value was “disrupting interaction strength”.
On to F957E;L964E, for which the “effect of a mutation on the interaction” value is reported as “disrupting interaction strength”.

Variants of B2 are the subject of a further test. The following applies: with slf1_human SLF1, Q9BQI6.
As to L775E;F786E;F792E, the “effect of a mutation on the interaction” value is given as “disrupting interaction strength”.
For M831R;I835R, the “effect of a mutation on the interaction” value is reported as “disrupting interaction strength”.
For the variant P957D;V959D;W1006A, the “effect of a mutation on the interaction” value is listed as “disrupting interaction strength”.
C820W;I821W: the “effect of a mutation on the interaction” value was “with no effect”.

The values are drawn from IntAct's records for PubMed 36373674.
